Test results from the supplement of paper PMC9112550, “Optimization of the antimicrobial peptide Bac7 by deep mutational scanning” (BMC Biology, 2022).

Test system: Escherichia coli TOP10
Experiment: shrunken log2 fold change of peptide-encoding DNA abundance (4.5 h post-induction vs induction); higher = less antimicrobial activity (less host growth inhibition)
Conditions: time post-induction: 4.5 h; library: site-saturation at positions 5, 18, 19, 20
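Note: peptides expressed intracellularly from a pBAD plasmid library in pooled LB shake-flask culture, induced with 0.3% L-arabinose, DNA abundance read by NGS, three biological replicates, DESeq2 with apeglm shrinkage.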

Sequence | shrunken log2 fold change
RRIRARPPRLPRPRPRPCPKPRP | -0.0619
RRIRYRPPRLPRPRPRPTNPPRP | -0.165
RRIRNRPPRLPRPRPRPHNYPRP | -0.968
RRIRKRPPRLPRPRPRPYNSPRP | -0.49
RRIRCRPPRLPRPRPRPEMMPRP | 0.0935
RRIRTRPPRLPRPRPRPTFTPRP | 0.00867
RRIRCRPPRLPRPRPRPFGVPRP | -0.0152
RRIRSRPPRLPRPRPRPMRVPRP | 0.691
RRIRGRPPRLPRPRPRPQKMPRP | 0.331
RRIRRRPPRLPRPRPRPDNYPRP | -0.323
RRIRQRPPRLPRPRPRPWPQPRP | -0.0188
RRIRERPPRLPRPRPRPEMRPRP | 0.151
RRIRYRPPRLPRPRPRPNLAPRP | -0.0223
RRIRRRPPRLPRPRPRPIQKPRP | -0.218
RRIRARPPRLPRPRPRPVFVPRP | 0.179
RRIRARPPRLPRPRPRPYTPPRP | -0.373
RRIRHRPPRLPRPRPRPIGSPRP | -0.0183
RRIRPRPPRLPRPRPRPYIFPRP | -0.984
RRIRHRPPRLPRPRPRPAWVPRP | 0.15
RRIRERPPRLPRPRPRPRIQPRP | -0.362
RRIRQRPPRLPRPRPRPMMQPRP | -0.313
RRIRWRPPRLPRPRPRPTDQPRP | 0.203
RRIRKRPPRLPRPRPRPCNPPRP | -0.00652
RRIRSRPPRLPRPRPRPDLPPRP | -0.246
RRIRKRPPRLPRPRPRPRRQPRP | 0.333

Sequence | shrunken log2 fold change
RRIRLRPPRLPRPRPRPMFFPRP | -0.381
RRIRFRPPRLPRPRPRPRRMPRP | 0.397
RRIRTRPPRLPRPRPRPLVAPRP | 0.106
RRIRPRPPRLPRPRPRPCMGPRP | -0.398
RRIRMRPPRLPRPRPRPWVAPRP | 0.109
RRIRIRPPRLPRPRPRPKCIPRP | -0.399
RRIRGRPPRLPRPRPRPFWKPRP | 0.0889
RRIRDRPPRLPRPRPRPCLPPRP | -0.272
RRIRFRPPRLPRPRPRPCMCPRP | -0.544
RRIRERPPRLPRPRPRPAIDPRP | -0.457
RRIRLRPPRLPRPRPRPYRPPRP | -0.221
RRIRRRPPRLPRPRPRPEPTPRP | 0.543
RRIRQRPPRLPRPRPRPLWHPRP | -0.107
RRIRQRPPRLPRPRPRPRDIPRP | 0.0657
RRIRIRPPRLPRPRPRPDVYPRP | -0.571
RRIRVRPPRLPRPRPRPGKFPRP | -0.17
RRIRVRPPRLPRPRPRPDGCPRP | 0.101
RRIRFRPPRLPRPRPRPWCQPRP | -0.0361
RRIRLRPPRLPRPRPRPGHWPRP | 0.279
RRIRHRPPRLPRPRPRPKTGPRP | -0.0854
RRIRPRPPRLPRPRPRPTRTPRP | 0.508
RRIRFRPPRLPRPRPRPHYNPRP | -0.786
RRIRPRPPRLPRPRPRPLVTPRP | -0.302
RRIRYRPPRLPRPRPRPDSSPRP | -0.0431
RRIRCRPPRLPRPRPRPYMQPRP | -0.918

Sequence | shrunken log2 fold change
RRIRGRPPRLPRPRPRPDKEPRP | 0.208
RRIRWRPPRLPRPRPRPTCVPRP | 0.145
RRIRARPPRLPRPRPRPRHCPRP | -0.0733
RRIRDRPPRLPRPRPRPSGEPRP | 0.0799
RRIRRRPPRLPRPRPRPVEPPRP | -0.0837
RRIRLRPPRLPRPRPRPPCAPRP | 0.457
RRIRNRPPRLPRPRPRPHWLPRP | -0.101
RRIRHRPPRLPRPRPRPWNEPRP | -0.171
RRIRERPPRLPRPRPRPSVQPRP | -0.204
RRIRHRPPRLPRPRPRPVYHPRP | -0.282
RRIRSRPPRLPRPRPRPFIIPRP | -0.34
RRIRPRPPRLPRPRPRPRPNPRP | 0.505
RRIRNRPPRLPRPRPRPYPPPRP | -0.671
RRIRCRPPRLPRPRPRPHWTPRP | -0.226
RRIRPRPPRLPRPRPRPMWTPRP | 0.0739
RRIRQRPPRLPRPRPRPCYAPRP | -0.251
RRIRSRPPRLPRPRPRPFMTPRP | -0.328
RRIRCRPPRLPRPRPRPPMMPRP | -0.0549
RRIRTRPPRLPRPRPRPNVCPRP | 0.128
RRIRNRPPRLPRPRPRPDHRPRP | -0.0124
RRIRNRPPRLPRPRPRPWRTPRP | -0.323
RRIRSRPPRLPRPRPRPMVHPRP | -0.026
RRIRGRPPRLPRPRPRPHDAPRP | 0.00554
RRIRMRPPRLPRPRPRPAVAPRP | 1.04
RRIRRRPPRLPRPRPRPWGYPRP | -0.275

Sequence | shrunken log2 fold change
RRIRTRPPRLPRPRPRPKILPRP | -0.0614
RRIRRRPPRLPRPRPRPKLRPRP | 1.25
RRIRKRPPRLPRPRPRPLMSPRP | 0.0201
RRIRNRPPRLPRPRPRPGRDPRP | 0.366
RRIRKRPPRLPRPRPRPAFNPRP | -0.169
RRIRFRPPRLPRPRPRPWGPPRP | -0.106
RRIRIRPPRLPRPRPRPDYDPRP | -0.00137
RRIRCRPPRLPRPRPRPWGAPRP | 0.0457
RRIRYRPPRLPRPRPRPRLNPRP | -0.313
RRIRMRPPRLPRPRPRPVQKPRP | 0.069
RRIRARPPRLPRPRPRPCKPPRP | -0.331
RRIRFRPPRLPRPRPRPQQGPRP | -0.0566
RRIRIRPPRLPRPRPRPDYNPRP | -0.998
RRIRRRPPRLPRPRPRPSHHPRP | -0.173
RRIRMRPPRLPRPRPRPSQPPRP | 0.22
RRIRTRPPRLPRPRPRPRRGPRP | 0.604
RRIRARPPRLPRPRPRPTSNPRP | 0.00789
RRIRIRPPRLPRPRPRPWDYPRP | -0.00975
RRIRPRPPRLPRPRPRPFATPRP | 0.0676
RRIRYRPPRLPRPRPRPADPPRP | 0.035
RRIRCRPPRLPRPRPRPKQIPRP | 0.0104
RRIRLRPPRLPRPRPRPILPPRP | -0.0368
RRIRERPPRLPRPRPRPNWMPRP | -0.24
RRIRMRPPRLPRPRPRPSAFPRP | 1.26
RRIRFRPPRLPRPRPRPGHMPRP | -0.0911

Sequence | shrunken log2 fold change
RRIRVRPPRLPRPRPRPPYLPRP | -0.0916
RRIRCRPPRLPRPRPRPLYCPRP | -0.593
RRIRRRPPRLPRPRPRPVALPRP | 0.225
RRIRQRPPRLPRPRPRPENWPRP | 0.284
RRIRPRPPRLPRPRPRPLSFPRP | -0.132
RRIRHRPPRLPRPRPRPGPIPRP | -0.133
RRIRKRPPRLPRPRPRPCCHPRP | -1.07
RRIRPRPPRLPRPRPRPLEEPRP | 0.215
RRIRLRPPRLPRPRPRPWTFPRP | -0.0155
RRIRPRPPRLPRPRPRPVKTPRP | 0.0289
RRIRARPPRLPRPRPRPFRAPRP | 0.0497
RRIRARPPRLPRPRPRPCKRPRP | -0.0822
RRIRPRPPRLPRPRPRPTARPRP | 0.352
RRIRFRPPRLPRPRPRPRFEPRP | 0.162
RRIRARPPRLPRPRPRPRHMPRP | -0.00102
RRIRLRPPRLPRPRPRPDSYPRP | 0.00388
RRIRHRPPRLPRPRPRPRKGPRP | 0.236
RRIRYRPPRLPRPRPRPVSEPRP | -0.00125
RRIRWRPPRLPRPRPRPGLGPRP | 0.83
RRIRYRPPRLPRPRPRPTHSPRP | -0.698
RRIRRRPPRLPRPRPRPLDRPRP | -0.00997
RRIRERPPRLPRPRPRPCQSPRP | -0.127
RRIRDRPPRLPRPRPRPHEQPRP | -0.0062
RRIRCRPPRLPRPRPRPKHSPRP | -0.401
RRIRARPPRLPRPRPRPNYDPRP | -0.36
